Test results reported in the supplement of paper PMC7877785.
± gives the uncertainty stated by the source.

Test: self-splicing fitness, log relative to wild type (ln ratio); higher = more splicing; Tetrahymena group I intron in knt gene, E. coli kanamycin selection, DiMSum; sequences stand for … in CUCUCU…GGAGGGAAAAGUUAUCAGGCAUGCACCUGGUAGCUAGUCUUUAAACCAAUAGAUUGCAUCGGUUUAAAAGGCAAGACCGUCAAAUUGCGGGAAAGGGGUCAACAGCCGUUCAGUACCAAGUCUCAGGGGAAACUUUGAGAUGGCCUUGCAAAGGGUAUGGUAAUAAGCUGACGGACAUGGUCCUAACCACGCAGCCAAGUCCUAAGUCAACAGAUCUUCUGUUGAUAUGGAUGCAGUUCACAGACUAAAUGUCGGUCGGGGAAGAUGUAUUCUUCUCAUAAGAUAUAGUCGGACCUCUCCUUAAUGGGAGCUAGCGGAUGAAGUGAUGCAACACUGGAGCCGCUGGGAACUAAUUUGUAUGCGAAAGUAUAUUGAUUAGUUUUGGAGUACUCGUGGUCG
Method in brief: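 Pooled colonies went to amplicon sequencing on an Illumina HiSeq 2500 after six replicate transformations. The plates were LB agar with 100 μg/mL carbenicillin, 50 μM IPTG and 0.2% rhamnose, with or without 25 μg/mL kanamycin, incubated overnight at 37°C or 30°C. The E. coli BL21(DE3) library had all eight P1ex-region intron nucleotides randomised, the intron placed in the knt kanamycin-resistance gene on pET-22b(+). DiMSum fitness is the error-weighted combination of replicate fold changes, kanamycin against none, normalised to wild type.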

Row | Sequence | self-splicing fitness (ln) (30 °C) | self-splicing fitness (ln) (37 °C)
1 | GCGGAGCAAUAUUACGGAUC | -0.472 ± 0.083 | -0.528 ± 0.17
2 | GUUAAGCAAUAUUACGCAAC | – | -0.0162 ± 0.34
3 | CAUGAGCAAUAUUACGACGC | -3.01 ± 0.23 | -1.99 ± 0.3
4 | CGAGAGCAAUAUUACGGCGU | -2.46 ± 0.28 | -1.2 ± 0.19
5 | UCCAAGCAAUAUUACGGCGC | -2.4 ± 0.14 | -2.5 ± 0.15
6 | GGUGAGCAAUAUUACGGCCG | -1.15 ± 0.38 | -2.11 ± 0.24
7 | CAUCAGCAAUAUUACGCACU | -1.99 ± 0.092 | -1.17 ± 0.098
8 | GAGUAGCAAUAUUACGAGUA | -1.92 ± 0.16 | -1.28 ± 0.17
9 | GCUGAGCAAUAUUACGAGGU | -3.72 ± 0.29 | -1.74 ± 0.22
10 | CAAUAGCAAUAUUACGGGAA | -3.21 ± 0.2 | -1.94 ± 0.15
11 | AGCAAGCAAUAUUACGGACU | -0.137 ± 0.084 | -0.455 ± 0.094
12 | GGCAAGCAAUAUUACGAACU | -1.18 ± 0.16 | 0.413 ± 0.14
13 | UUUUAGCAAUAUUACGCCGA | -1.15 ± 0.29 | -0.282 ± 0.32
14 | CAGGAGCAAUAUUACGGAUA | – | -0.862 ± 0.41
15 | CCUUAGCAAUAUUACGACAA | -3.31 ± 0.2 | -3.02 ± 0.35
16 | GAUUAGCAAUAUUACGUUGU | -2.91 ± 0.23 | -2.15 ± 0.28
17 | CCGAAGCAAUAUUACGAAGU | -3.15 ± 0.19 | -2.8 ± 0.29
18 | ACCAAGCAAUAUUACGGUAC | -3.83 ± 0.22 | -1.16 ± 0.15
19 | UGCUAGCAAUAUUACGUGAA | -2.87 ± 0.14 | -0.167 ± 0.1
20 | ACAGAGCAAUAUUACGGCUU | -3.27 ± 0.23 | -1.99 ± 0.18

Row | Sequence | self-splicing fitness (ln) (30 °C) | self-splicing fitness (ln) (37 °C)
21 | UUGUAGCAAUAUUACGGCUA | – | 0.21 ± 0.5
22 | CGCUAGCAAUAUUACGCCAU | -3.62 ± 0.3 | -1.27 ± 0.27
23 | CCCAAGCAAUAUUACGCACC | – | -2.31 ± 0.33
24 | UGAAAGCAAUAUUACGCACC | -0.796 ± 0.2 | -0.513 ± 0.26
25 | ACUAAGCAAUAUUACGCAUC | -3.13 ± 0.28 | -1.54 ± 0.2
26 | AAUCAGCAAUAUUACGUAUU | -1.17 ± 0.053 | -0.697 ± 0.061
27 | CGAAAGCAAUAUUACGGGCA | -1.85 ± 0.11 | -0.138 ± 0.1
28 | GCCGAGCAAUAUUACGCGGC | – | -2.33 ± 0.36
29 | CUAGAGCAAUAUUACGUGGC | -3.87 ± 0.24 | -1.8 ± 0.23
30 | AGCGAGCAAUAUUACGCGGG | -2.55 ± 0.24 | -2.54 ± 0.36
31 | GAUAAGCAAUAUUACGUUGC | -3.38 ± 0.15 | -2.3 ± 0.21
32 | UACCAGCAAUAUUACGAUGC | -3.19 ± 0.16 | -3.07 ± 0.25
33 | UCCGAGCAAUAUUACGGUCC | -3.08 ± 0.24 | -3.35 ± 0.33
34 | AGCUAGCAAUAUUACGGCAG | -1.19 ± 0.1 | -1.08 ± 0.12
35 | GUUGAGCAAUAUUACGGUCU | -3.49 ± 0.21 | -2.56 ± 0.18
36 | AAAAAGCAAUAUUACGUCGU | -1.5 ± 0.061 | -0.928 ± 0.078
37 | ACACAGCAAUAUUACGGUUC | -3.81 ± 0.14 | -2.03 ± 0.12
38 | UAGCAGCAAUAUUACGAGUC | -4.81 ± 0.34 | -2.22 ± 0.22
39 | UGCGAGCAAUAUUACGAUCU | -1.84 ± 0.21 | -1.06 ± 0.16
